This assay deals with double-domain activation-associated secreted protein (ASP) (Cooperia oncophora (endogenous in adult worms)). Description: reducing against non-reducing SDS-PAGE, bands identified by MALDI-TOF MS.

With “double-domain activation-associated secreted protein (ASP) (natural protein)”, the stoichiometry N amounted to 2.

For the origin of these results see publication PMC3883574.
